Changes are numbered by the printed parent chain.
Key:
Assay in all cases: FRET or BRET
[1] = target: ASIC3(1–43,466–505)1a-CER (rat) (UniProt O35240)
[2] = target: ASIC3(466–505)1a-CER (rat) (UniProt O35240)
[3] = target: ASIC3(506–519)1a-CER (rat) (UniProt O35240)
ASIC3(44–71)1a-CER = target: T1, ASIC3(44–71)1a-CER (rat, UniProt O35240 1-43; P55926 44-71; O35240 72-533)
T1 chain (looked up): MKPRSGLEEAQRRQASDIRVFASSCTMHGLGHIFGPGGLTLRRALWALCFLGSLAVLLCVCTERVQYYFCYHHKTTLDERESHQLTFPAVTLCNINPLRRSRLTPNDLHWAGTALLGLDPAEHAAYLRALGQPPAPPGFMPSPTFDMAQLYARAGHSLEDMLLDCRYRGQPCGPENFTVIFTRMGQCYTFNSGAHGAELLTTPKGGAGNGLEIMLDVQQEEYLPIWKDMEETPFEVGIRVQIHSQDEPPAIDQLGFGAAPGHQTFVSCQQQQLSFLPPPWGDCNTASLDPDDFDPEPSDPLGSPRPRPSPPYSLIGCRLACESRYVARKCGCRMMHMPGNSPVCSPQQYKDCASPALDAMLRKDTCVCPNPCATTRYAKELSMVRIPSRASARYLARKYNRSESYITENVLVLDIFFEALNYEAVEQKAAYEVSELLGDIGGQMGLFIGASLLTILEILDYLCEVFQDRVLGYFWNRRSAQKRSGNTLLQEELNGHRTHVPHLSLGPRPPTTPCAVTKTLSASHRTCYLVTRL

ASIC3(Q269G)-CER = target: T2, ASIC3(Q269G)-CER (rat, UniProt O35240 1-533, Q269G)
T2 sequence (looked up): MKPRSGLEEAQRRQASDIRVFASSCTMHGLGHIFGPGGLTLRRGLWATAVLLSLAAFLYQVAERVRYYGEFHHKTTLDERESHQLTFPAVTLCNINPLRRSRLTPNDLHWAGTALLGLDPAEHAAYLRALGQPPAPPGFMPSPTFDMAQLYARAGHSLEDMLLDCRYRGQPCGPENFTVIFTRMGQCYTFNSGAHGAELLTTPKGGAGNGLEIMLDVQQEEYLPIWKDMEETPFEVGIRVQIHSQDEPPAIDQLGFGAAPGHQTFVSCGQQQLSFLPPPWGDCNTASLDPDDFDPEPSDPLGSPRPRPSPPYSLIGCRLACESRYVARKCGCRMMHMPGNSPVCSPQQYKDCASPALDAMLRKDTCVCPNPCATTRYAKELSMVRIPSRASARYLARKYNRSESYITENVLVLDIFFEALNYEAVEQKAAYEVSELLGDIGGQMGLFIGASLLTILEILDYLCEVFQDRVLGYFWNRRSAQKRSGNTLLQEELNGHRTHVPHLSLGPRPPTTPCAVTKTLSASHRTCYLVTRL

[4] = target: T3, ASIC3-CER (rat acid-sensing ion channel 3 with a C-terminal mCerulean3) (rat, UniProt O35240 1-533)
T3 sequence (looked up): T2 sequence (looked up) with G269Q

FRET efficiency [1]: 9.3% | FRET efficiency [2]: 13.1% | FRET efficiency [3]: 9.9% | FRET efficiency (ASIC3(44–71)1a-CER): 11.8% | FRET efficiency (ASIC3(Q269G)-CER): 10.3% | FRET efficiency [4]: 12.5%
B1: STOM-YFP (mouse stomatin with a C-terminal EYFP) (natural protein, UniProt P54116 1-284, looked up)
chain: MSDKRQSSHVQSQRIPESFRENSKTELGACGWILVAASFFFVIITFPISIWICIKIVKEYERVIIFRLGRILQGGAKGPGLFFILPCTDSLIKVDMRTISFDIPPQEVLTKDSVTISVDGVVYYRVQNATLAVANITNADSATRLLAQTTLRNALGTKNLSQILSDREEIAHHMQSTLDDATDDWGIKVERVEIKDVKLPVQLQRAMAAEAEAAREARAKVIAAEGEMNASRALKEASMVITESPAALQLRYLQTLTTIAAEKNSTIVFPLPVDMLQGIMGSNH

Reference: article PMC7054857 (The Journal of General Physiology, 2020)
